The text below walks through data of US20150376252A1 (VAN ANDEL RESEARCH INSTITUTE, published 2015).

The labels stand for the following.
T1: Fz4-YFP-C (full-length human Fz4 with YFP residues 159-239 at the C-terminus) (human, UniProt Q9ULV1 37-537)
T1 construct: whole, on cells; also called YFP-C-tagged Fz4; not shown: YFP-C, residues 159-239 of YFP
T1 sequence (looked up): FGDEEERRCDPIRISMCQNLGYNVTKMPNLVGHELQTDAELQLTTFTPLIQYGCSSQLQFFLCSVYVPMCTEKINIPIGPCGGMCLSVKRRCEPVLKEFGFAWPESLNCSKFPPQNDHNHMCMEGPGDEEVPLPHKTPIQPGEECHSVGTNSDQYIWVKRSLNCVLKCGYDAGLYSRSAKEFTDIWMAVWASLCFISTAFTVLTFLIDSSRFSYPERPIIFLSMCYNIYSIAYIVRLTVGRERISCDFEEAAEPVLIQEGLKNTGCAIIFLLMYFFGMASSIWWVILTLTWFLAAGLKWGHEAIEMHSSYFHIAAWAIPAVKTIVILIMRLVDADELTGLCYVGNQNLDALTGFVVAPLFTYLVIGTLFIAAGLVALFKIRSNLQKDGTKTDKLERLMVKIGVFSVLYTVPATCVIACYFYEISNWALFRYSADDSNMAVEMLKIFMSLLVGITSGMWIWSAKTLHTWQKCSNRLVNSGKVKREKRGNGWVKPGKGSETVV

T2: Fz4-YFP (full-length human Fz4 with yellow fluorescent protein at the C-terminus) (human, UniProt Q9ULV1 37-537)
T2 construct: whole, on cells; also called YFP-tagged Fz4; not shown: YFP
T2 sequence (looked up): T1 sequence (looked up)

T3: Fz4-Rlu (full-length human Fz4 with Renilla luciferase at the C-terminus) (human, UniProt Q9ULV1 37-537)
T3 construct: whole, on cells; also called Rlu-tagged Fz4; not shown: Renilla luciferase (Rlu)
T3 sequence (looked up): T1 sequence (looked up)

T4: Tspan12-YFP (human Tspan12 with YFP at the C-terminus) (human, UniProt O95859 1-305)
T4 construct: whole, on cells; also called YFP-tagged Tspan12; not shown: YFP
T4 sequence (looked up): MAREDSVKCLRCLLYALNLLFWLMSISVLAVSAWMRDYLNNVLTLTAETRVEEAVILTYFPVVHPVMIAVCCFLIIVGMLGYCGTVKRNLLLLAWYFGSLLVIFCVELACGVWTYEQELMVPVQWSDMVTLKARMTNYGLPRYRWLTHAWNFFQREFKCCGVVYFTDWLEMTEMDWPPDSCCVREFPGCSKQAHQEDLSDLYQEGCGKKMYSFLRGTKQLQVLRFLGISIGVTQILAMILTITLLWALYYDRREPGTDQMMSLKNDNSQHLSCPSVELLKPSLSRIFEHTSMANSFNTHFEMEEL

B1: His8-tagged Lrp6 BP1-2 (Lrp6 extracellular beta-propeller domains 1 and 2) (receptor, UniProt O75581 20-631, looked up)
chain: APLLLYANRRDLRLVDATNGKENATIVVGGLEDAAAVDFVFSHGLIYWSDVSEEAIKRTEFNKTESVQNVVVSGLLSPDGLACDWLGEKLYWTDSETNRIEVSNLDGSLRKVLFWQELDQPRAIALDPSSGFMYWTDWGEVPKIERAGMDGSSRFIIINSEIYWPNGLTLDYEEQKLYWADAKLNFIHKSNLDGTNRQAVVKGSLPHPFALTLFEDILYWTDWSTHSILACNKYTGEGLREIHSDIFSPMDIHAFSQQRQPNATNPCGIDNGGCSHLCLMSPVKPFYQCACPTGVKLLENGKTCKDGATELLLLARRTDLRRISLDTPDFTDIVLQLEDIRHAIAIDYDPVEGYIYWTDDEVRAIRRSFIDGSGSQFVVTAQIAHPDGIAVDWVARNLYWTDTGTDRIEVTRLNGTMRKILISEDLEEPRAIVLDPMVGYMYWTDWGEIPKIERAALDGSDRVVLVNTSLGWPNGLALDYDEGKIYWGDAKTDKIEVMNTDGTGRRVLVEDKIPHIFGFTLLGDYVYWTDWQRRSIERVHKRSAEREVIIDQLPDLMGLKATNVHRVIGSNPCAEENGGCSHLCLYRPQGLRCACPIGFELISDMKTCIVPE
notes: domain: β-propeller domains 1-2 (BP1-2); for the separate Fc constructs BP1 is 20-325 and BP2 is 325-631; also called H8-Lrp6 BP1-2; not shown: His8 tag (eight histidines)
B2: Fz4-FcH6 (human Frizzled 4 CRD, residues 40-164, fused to Fc and His6 tags) (Fc fusion)
chain: EEERRCDPIRISMCQNLGYNVTKMPNLVGHELQTDAELQLTTFTPLIQYGCSSQLQFFLCSVYVPMCTEKINIPIGPCGGMCLSVKRRCEPVLKEFGFAWPESLNCSKFPPQNDHNHMCMEGPGD
notes: range 40-164; also called Fz4 CRD-FcH6; Fz4-FcH6 dimer; not shown: Fc tag of the pHL-IgL-FcH6 vector; His6 tag (six histidines)
B3: Tspan12-Rlu (human Tspan12 with Renilla luciferase at the C-terminus) (other, UniProt O95859 1-305, looked up)
chain: T4 sequence (looked up)
notes: whole, on cells; also called Rlu-tagged Tspan12; not shown: Renilla luciferase (Rlu)
B4: CCK2R-YFP (receptor, UniProt P32239 1-447, looked up)
chain: MELLKLNRSVQGTGPGPGASLCRPGAPLLNSSSVGNLSCEPPRIRGAGTRELELAIRITLYAVIFLMSVGGNMLIIVVLGLSRRLRTVTNAFLLSLAVSDLLLAVACMPFTLLPNLMGTFIFGTVICKAVSYLMGVSVSVSTLSLVAIALERYSAICRPLQARVWQTRSHAARVIVATWLLSGLLMVPYPVYTVVQPVGPRVLQCVHRWPSARVRQTWSVLLLLLLFFIPGVVMAVAYGLISRELYLGLRFDGDSDSDSQSRVRNQGGLPGAVHQNGRCRPETGAVGEDSDGCYVQLPRSRPALELTALTAPGPGSGSRPTQAKLLAKKRVVRMLLVIVVLFFLCWLPVYSANTWRAFDGPGAHRALSGAPISFIHLLSYASACVNPLVYCFMHRRFRQACLETCARCCPRPPRARPRALPDEDPPTPSIASLSRLSYTTISTLGPG
notes: whole, on cells; Negative control of the saturation BRET; also called CCK2R-YFP, an unrelated seven-transmembrane receptor; not shown: YFP
B5: Fz8-FcH6 (Frizzled 8 CRD, residues 28-155, fused to Fc and His6 tags) (Fc fusion)
chain: ASAKELACQEITVPLCKGIGYNYTYMPNQFNHDTQDEAGLEVHQFWPLVEIQCSPDLKFFLCSMYTPICLEDYKKPLPPCRSVCERAKAGCAPLMRQYGFAWPDRMRCDRLPEQGNPDTLCMDYNRTD
notes: range 28-155; also called Fz8 CRD; not shown: Fc tag of the pHL-IgL-FcH6 vector; His6 tag (six histidines)
B6: Soluble-Rlu (enzyme)
chain: MTSKVYDPEQRKRMITGPQWWARCKQMNVLDSFINYYDSEKHAENAVIFLHGNAASSYLWRHVVPHIEPVARCIIPDLIGMGKSGKSGNGSYRLLDHYKYLTAWFELLNLPKKIIFVGHDWGACLAFHYSYEHQDKIKAIVHAESVVDVIESWDEWPDIEEDIALIKSEEGEKMVLENNFFVETMLPSKIMRKLEPEEFAAYLEPFKEKGEVRRPTLSWPREIPLVKGGKPDVVQIVRNYNAYLRASDDLPKMFIESDPGFFSNAIVEGAKKFPNTEFVKVKGLHFSQEDAPDEMGKYIKSFVERVLKNEQ
B7: Fz4-YFP-N (full-length human Fz4 with YFP residues 1-158 at the C-terminus) (receptor, UniProt Q9ULV1 37-537, looked up)
chain: T1 sequence (looked up)
notes: whole, on cells; also called YFP-N-tagged Fz4; not shown: YFP-N, residues 1-158 of YFP
B8: Lrp6 BP3-4 (Lrp6 extracellular beta-propeller domains 3 and 4) (receptor)
chain: VPEAFLLFSRRADIRRISLETNNNNVAIPLTGVKEASALDFDVTDNRIYWTDISLKTISRAFMNGSALEHVVEFGLDYPEGMAVDWLGKNLYWADTGTNRIEVSKLDGQHRQVLVWKDLDSPRALALDPAEGFMYWTEWGGKPKIDRAAMDGSERTTLVPNVGRANGLTIDYAKRRLYWTDLDTNLIESSNMLGLNREVIADDLPHPFGLTQYQDYIYWTDWSRRSIERANKTSGQNRTIIQGHLDYVMDILVFHSSRQSGWNECASSNGHCSHLCLAVPVGGFVCGCPAHYSLNADNRTCSAPTTFLLFSQKSAINRMVIDEQQSPDIILPIHSLRNVRAIDYDPLDKQLYWIDSRQNMIRKAQEDGSQGFTVVVSSVPSQNLEIQPYDLSIDIYSRYIYWTCEATNVINVTRLDGRSVGVVLKGEQDRPRAVVVNPEKGYMYFTNLQERSPKIERAALDGTEREVLFFSGLSKPIALALDSRLGKLFWADSDLRRIESSDLSGANRIVLEDSNILQPVGLTVFENWLYWIDKQQQMIEKIDMTGREGRTKVQARIAQLSDIHAVKELNLQEYRQHPCAQDNGGCSHICLVKGDGTTRCSCPMHLVLLQDELSCG
notes: domain: β-propeller domains 3-4 (BP3-4); not shown: His8 tag (His8 tagged Lrp6 ECD proteins)

Where two headings read alike, the source gives them in different places.

In one experiment the target is T5, MBP-Norrin K54E/R109E (human).
T5 construct: MBP tagged mutant purified like the wild-type; also called K54E/R109E double mutant
Kind of experiment: AlphaScreen competition: unlabeled mutant MBP-Norrin against b-DKK1 peptide on H8-Lrp6 BP1-2. On the technique in general: Alpha assays give light when donor and acceptor beads are brought close together.

Experiment [1] concerns the target T6, MBP-Norrin (maltose binding protein fused to the N-terminus of human Norrin residues 25-133, wild-type) (human). The experiment in a line: calculated from the homologous competition assay (FIG. 4B, 4C); Kd derived from the same homologous competition.
In experiment [2] the target is T6, MBP-Norrin (maltose binding protein …). The experiment in a line: biolayer interferometry; binding avidity of dimer to dimer (FIG. 8A). (BLI is a label-free optical method that tracks binding on a fibre tip over time.)
The target of experiment [3] is biotinylated MBP-Norrin (human). The experiment in a line: AlphaScreen saturation binding curve; binding avidity of dimer to dimer (FIG. 1E).
In experiment [4] the target is B7. The experiment in a line: split-YFP BRET assay (FIG. 6D). In general terms: Bioluminescence resonance energy transfer reports proximity on the nanometre scale.
Experiment [5] deals with T1, Fz4-YFP-C (full-length human Fz4 with …). Kind of experiment: split-YFP BRET assay (FIG. 6D).
The target in experiment [6] is T2, Fz4-YFP (full-length human Fz4 with …). Kind of experiment: static BRET in transfected COS-1 cells.
In experiment [7] the target is T3, Fz4-Rlu (full-length human Fz4 with …). The experiment in a line: saturation BRET in transfected COS-1 cells.
Experiment [8] concerns the target biotinylated MBP-Norrin (human). The experiment in a line: AlphaScreen luminescence proximity assay.
The target in experiment [9] is T6, MBP-Norrin (maltose binding protein …). The experiment in a line: biolayer interferometry, Fz8-FcH6 on the sensor, MBP-Norrin in solution.
Experiment [10] deals with T2, Fz4-YFP (full-length human Fz4 with …). Kind of experiment: static BRET in transfected COS-1 cells. The source holds these as a separate data set.
The target of experiment [11] is T4, Tspan12-YFP (human Tspan12 with YFP at …). Kind of experiment: static BRET in transfected COS-1 cells.
Experiment [12] concerns the target T1, Fz4-YFP-C (full-length human Fz4 with …). Kind of experiment: split-YFP complementation: fluorescence microscopy, emission spectrum, anisotropy.
Experiment [13] addresses biotinylated MBP-Norrin (human). The experiment in a line: AlphaScreen luminescence proximity assay. The source holds these as a separate data set.
The target in experiment [14] is T6, MBP-Norrin (maltose binding protein …). The experiment in a line: three-step biolayer interferometry: Lrp6 BP3-4 on MBP-Norrin pre-bound to Fz4-FcH6 sensors.

As for B1, in the experiment with MBP-Norrin K54E/R109E, the binding result is “no binding (tested: 1.805 µM)”. Also, the Kd in experiment [1] is roughly 450 nM.
As to B2, the figures for the Kd (in experiment [2]; with biotinylated MBP-Norrin [3]) were roughly 5 nM and roughly 11 nM, respectively.
Take B3: the binding result in experiment [4], in experiment [5] and in experiment [6] was “binds” throughout.
B4: the binding result in experiment [7] is “no binding (tested: YFP/Rlu about 33 (ratio))”.
As for B5, the binding result (with biotinylated MBP-Norrin [8]; in experiment [9]) was “no binding” each time.
For the molecule B6, the binding result in experiment [10] and in [11] was “no binding” each time.
With B7, the binding result in experiment [12] was “binds”.
Turning to B8, the results for the binding result (in the experiment with biotinylated MBP-Norrin [13]; in experiment [14]) were “no binding” and “no binding (tested: 40 µg/ml)”, respectively.
